Results taken from patent US20220323598A1 (NATIONAL UNIVERSITY CORPORATION TOKAI NATIONAL HIGHER …, published 2022).

B1: 2DC_5-2 (antibody, mouse IgG1, V domains shown)
VH: EVKLVESGGGLVKPGGSLKLSCAASGFTFSSYAMSWVRQTPEKRLEWVAAINTKGGSTYYPDTVKDRFTISRDNAKNILYLQMSSLRSEDTALYYCARHEPVYDYAMDYWGQGTSVTVSS
VL: DIKMTQSPSSMYASLGERVTITCKASQDINSYLSWFQQKPGKSPKTLIYRANRLVDGVPSRFSGSGSGQDYSLTISSLECGDMGIYYCLQYDEFPYTFGGGTKLEIK
notes: VH was cloned with a mouse IgG1 CH1 primer and VL with a kappa constant region primer; also called clone 2DC_5-2
B2: chimeric antibody M1 (antibody, human IgG1, V domains shown)
VH: B1 VH
VL: B1 VL
notes: Mouse VH and VL of 2DC_5-2 in a vector carrying the human IgG1 constant region; also called chimerized antibody obtained from clone 2DC_5-2
B3: 6AM_120-2 (antibody, mouse IgG1, V domains shown)
VH: EIQLQQSGAELVKPGASVKISCKASGYSFTGYNMNWVKQSHGKSLEWIGNINPYYGNTSYNQKFKGKATLTVDKSSSTAYMQLNSLTSEDSAVYYCAREGFEYFDYWGQGTTLTVSS
VL: DIQMTQSPASLSASVGETVTITCRASENIYSYLAWYQQKQGKSPQLLVYNVKTLAEGVPSRFSGSGSGTQFSLKINSLQPEDFGSYYCQHHYGIPYTFGSGTKLEIK
notes: VH was cloned with a mouse IgG1 CH1 primer and VL with a kappa constant region primer
B4: chimeric antibody M3 (antibody, human IgG1, V domains shown)
VH: B3 VH
VL: B3 VL
notes: Mouse VH and VL of 6AM_120-2 in a vector carrying the human IgG1 constant region; also called chimerized antibody obtained from clone 6 AM_120-2

Experiments:
[1] = biological target: T1, human ROR1 protein (GenBank accession No. NP_005003.2) (human, UniProt Q01973 30-937); test: flow cytometry on NCI-H358 cells, relative affinity
T1 construct: whole, on cells; also called hROR1; endogenous human ROR1
T1 sequence (Q01973 30-937): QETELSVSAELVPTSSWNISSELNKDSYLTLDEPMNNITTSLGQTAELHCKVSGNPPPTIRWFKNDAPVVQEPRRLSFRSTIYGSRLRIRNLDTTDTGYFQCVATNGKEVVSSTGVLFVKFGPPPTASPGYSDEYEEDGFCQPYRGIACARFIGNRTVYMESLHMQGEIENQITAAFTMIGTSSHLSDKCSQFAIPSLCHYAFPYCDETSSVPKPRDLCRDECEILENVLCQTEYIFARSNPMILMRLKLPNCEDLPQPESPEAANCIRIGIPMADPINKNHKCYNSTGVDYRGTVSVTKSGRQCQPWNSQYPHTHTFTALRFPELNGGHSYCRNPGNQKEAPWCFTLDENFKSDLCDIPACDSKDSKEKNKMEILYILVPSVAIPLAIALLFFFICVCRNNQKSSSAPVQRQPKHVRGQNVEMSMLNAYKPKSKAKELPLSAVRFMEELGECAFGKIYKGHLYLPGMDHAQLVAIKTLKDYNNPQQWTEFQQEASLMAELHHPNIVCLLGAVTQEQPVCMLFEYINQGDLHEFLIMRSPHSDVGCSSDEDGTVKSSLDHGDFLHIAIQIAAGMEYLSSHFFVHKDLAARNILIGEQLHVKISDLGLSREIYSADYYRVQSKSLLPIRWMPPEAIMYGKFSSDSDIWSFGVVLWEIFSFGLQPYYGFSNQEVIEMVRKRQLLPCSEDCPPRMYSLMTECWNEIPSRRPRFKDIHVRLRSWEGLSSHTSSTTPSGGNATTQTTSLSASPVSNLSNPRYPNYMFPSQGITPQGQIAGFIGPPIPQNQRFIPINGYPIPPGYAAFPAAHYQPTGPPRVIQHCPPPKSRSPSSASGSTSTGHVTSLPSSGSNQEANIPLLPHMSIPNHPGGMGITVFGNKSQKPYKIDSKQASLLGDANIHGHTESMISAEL
Procedure: To inspect response of the antibodies obtained as described above to an endogenous human ROR1, response to an ROR1 high expressing cell NCI-H358 (ATCC accession No. CRL-5807) line was observed as below. The antibodies were purified from the culture supernatant of each hybridoma clone by a general affinity purification method using Protein A-Sepharose, respectively. The obtained purified antibodies were analyzed for the average fluorescence intensity of flow cytometry under the same condition (the same number of NCI-H358 (1×10⁵), the same concentration of respective purified antibodies, and the same concentration of secondary (detected) antibodies). Further, data was acquired also for the average fluorescence intensity that depends on the antibody concentration, the detection limit at a low concentration was analyzed, and thereby relative affinity was evaluated. FIG. 2 to FIG. 4 illustrate the results in a form of graphs. The horizontal axis of each graph represents the used antibody concentration (ng/mL), and the vertical axis represents the average fluorescence intensity (MFI) in flow cytometry. FIG. 2A is a diagram illustrating the response of anti-human ROR1 antibodies to ROR1 expressing cells of acquired monoclonal antibodies (2 AM series and 2AC series). […]

[2] = biological target: T1, human ROR1 protein (GenBank accession …); test: flow cytometry, Alexa Fluor 488 labeled antibody at 1 µg/ml on ROR1 high (NCI-H1975, PC-9) and ROR1 low (A427, NCI-H460) expressing cell lines
Text: To inspect response of antibodies obtained as described above to an endogenous human ROR1, the response to the ROR1 high expressing cell line (NCI-H1975, PC-9) and the ROR1 low expressing cell line (A427, NCI-H460) was observed as follows. Note that NCI-H1975 (ATCC accession No. CRL-5908), A427 (ATCC accession No. HTB-53), and NCI-H460 (ATCC accession No. HTB-177) were purchased from American Type Culture Collection. The PC-9 cell line (RCB 4455) was obtained from RIKEN cell bank. Various cell lines were seeded on 6-well dishes to have 2×10⁵/well, cultured at 37 degrees Celsius for 24 hours, and collected after PBS washing. After chimerized antibodies labeled by using Alexa Fluor (registered trademark) 488 Antibody Labeling Kit (Thermo Fisher Scientific; A20181) were diluted to 1 μg/ml and reacted on ice for one hour, the resultant was washed with a PBS, and the reaction intensity was analyzed by flow cytometry. […] FIG. 6 illustrates graphs indicating the response of chimerized antibodies to the ROR1 high expressing cell line and the ROR1 low expressing cell line.

Binder	binding result [1]	binding result [2]
B1	binds	–
B2	–	binds
B3	binds	–
B4	–	binds
